Laboratory results: article PMC3157396, “Molecular Basis for the Recognition of Adenomatous Polyposis Coli by the Discs Large 1 Protein” (PLoS ONE, 2011)

B1: PDZ2 domain of human DLG1 with the point mutation Q340P (domain or fragment, UniProt Q12959 315-410, looked up)
chain: EKIMEIKLIKGPKGLGFSIAGGVGNPHIPGDNSIYVTKIIEGGAAHKDGKLQIGDKLLAVNNVCLEEVTHEEAVTALKNTSDFVYLKVAKPTSMYM
notes: human DLG1 PDZ2 domain, residues 315-410, Q340P; also called PDZ2 Q340P; PDZ2-Q340P; source: E. coli BL21 (DE3), purified
B2: GST-tagged C-terminal 11 residues of human Adenomatous Polyposis Coli (APC), residues 2833–2843 (peptide)
chain: RHSGSYLVTSV
notes: human Adenomatous Polyposis Coli (APC), C-terminal 11 residues, 2833-2843 of the 2,843-residue protein; cloned into pGEX4T1; also called GST-APC-C11; APC-C11; not shown: GST, N-terminal, kept

What was measured:
[1] = target: B2; experiment: ITC; ITC200, 25°C, 50 mM HEPES pH 7.5, 100 mM NaCl; PDZ domain (400 µM) injected 20 times in 2 µl aliquots into 40 µM GST-tagged APC-C11 or APC-C4; single site binding model; conditions: both partners purified
[2] = target: B1; experiment: as above; conditions: both partners purified

dH [1]	stoichiometry N [1]	Kd [2]	Binder
-7.09 ± 0.19 kcal/mol	0.916 ± 0.018		PDZ2 domain of human Discs Large 1 (DLG1), residues 315–410 (domain or fragment, UniProt Q12959 315-410, looked up, human Discs Large 1/Synapse Associated Protein 97 (DLG1), PDZ2 domain, residues 315-410; cloned into a pET28a-derived vector; also called WT PDZ2; second PDZ domain of DLG1; source: E. coli BL21 (DE3), purified (Ni2+-NTA, Superdex 200 gel filtration)) EKIMEIKLIKGPKGLGFSIAGGVGNQHIPGDNSIYVTKIIEGGAAHKDGKLQIGDKLLAVNNVCLEEVTHEEAVTALKNTSDFVYLKVAKPTSMYM
-6.76 ± 0.27 kcal/mol	1.04 ± 0.03		B1
		9.8 ± 1.11 µM	B2
